Reference: patent US20070184522A1, “Cell death modulation via antagonists of Fasl and Fas activation” (University of Pittsburgh of the Commonwealth System of …, priority 2004, published 2007)

What was measured:
[1] = system: caspase-3 activation in Hepa 1-6 cells; assay: Cleaved Caspase 3 in apoptotic Hepa 1-6 cell lysates; format: cell-based, mouse
Experimental: For FIG. 4a, Jurkat cells (1.5×10^5) were overnight treated in triplicate with 5 ng/ml of crosslinked human Fas ligand with or without 5 μg/ml of recombinant AlphaMet or 1 μg/ml of the indicated polypeptides. Percent apoptosis was determined by Trypan Blue staining using a hemocytometer. The data are representative and were repeated at least four times. […] The 17 kDa fragment of cleaved Caspase 3 is visualized by this antibody. The blot was reprobed for β-actin as a loading control. For FIG. 4c, serum deprived Hepa 1-6 cells (3×10^5) were overnight treated with 1 μg/ml of crosslinked mouse Fas ligand with or without AlphaMet or the indicated polypeptide. Media were collected and centrifuged to pellet the dead cells. […] The data in FIG. 4c represents three independent experiments.

[2] = system: endogenous Fas from Jurkat and Hepa 1-6 cells; assay: Immunoprecipitation with anti-Fas antibody after adding AlphaMet proteins to Jurkat and Hepa 1-6 cells, Western blot with anti-His; format: binding; settings: proteins added to Jurkat cells and Hepa 1-6 cells
Excerpt: The Met alpha but not beta chain binds to Fas (FIG. 1a). Various regions of the mouse Met cDNA corresponding to the alpha chain or the extra-cellular portion of the Met beta chain were cloned into expression vectors (pCRT7 TOPO/AlphaMet or pCRT7 TOPO/beta chain) and subjected to in vitro transcription/translation by a rabbit reticolucyte lysate translation system. Empty vector was included in each experiment as a control. The expressed proteins were labeled with ^35S-Methionine. Pull down assays were performed using Fas-Fc, a chimeric molecule which lacks the interacellular cytoplasmic domain and protein-A agarose as described in Wang et al., 2002. […] FIG. 1d depicts the amino acid sequence alignment of alpha chain with FasL, determined using the CLUSTALW, SIM+LALNVIEW, and ALIGN at ExPASy Proteomic Tools (available on the internet at us.expresly.org/tools). […] Recombinant His-tagged AlphaMet or its mutant version were expressed in E. coli, purified with chromatography, and subjected to Fas-Fc (lanes labeled Fas) or control IgG pull down experiments, and detected by Western blot using anti-His antibody that recognizes C-terminal His. […] After washing the wells, anti-human […]-HRP conjugates (1:20,000) were added to detect the bound Fas-Fc using TMD dye and the OD value was determined at a wavelength of 450 nm. […]

B1: alpha subunit of Met (AlphaMet), amino acid residues 1 to 306, His-tagged (receptor, mouse)
chain: MKAPTVLAPGILVLLLSLVQRSHGECKEALVKSEMNVNMKYQLPNFTAETPIQNVVLHGHHIYLGATNYIYVLNDKDLQKVSEFKTGPVLEHPDCLPCRDCSSKANSSGGVWKDNINMALLVDTYYDDQLISCGSVNRGTCQRHVLPPDNSADIQSEVHCMFSPEEESGQCPDCVVSALGAKVLLSEKDRFINFFVGNTINSSYPPGYSLHSISVRRLKETQDGFKFLTDQSYIDVLPEFLDSYPIKYIHAFESNHFIYFLTVQKETLDAQTFHTRIIRFCSVDSGLHSYMEMPLECILTEKRRKRHHHHHH
Activation of caspase-3 [1]: also inhibited by the wild type
co-precipitation with anti-Fas [2]: could be co-precipitated with anti-Fas
